What was measured:
Assay in all cases: initial rates of hydrolysis, fluorescamine detection of primary amine product
TthPAC = target: T1, TthPAC (Thermus thermophilus, UniProt Q72G76, DEL247-255); format: biochemical; conditions: 20 mM MES pH 5.5, 65 °C; kcat unit taken from kcat/Km in mM^-1.seg^-1
T1 construct: gene TT_C1972; One gene: precursor without its first 32 residues (membrane anchor), 2223 bp insert in pET28a, His6-tag (20 aa) at N-terminus of alpha subunit kept
Text: (§1) initial rates of hydrolysis, fluorescamine detection of primary amine product on TthPAC

[1] = substrate: CC/C=C/CC(=O)N[C@@H]1C(=O)N2[C@@H]1SC(C)(C)[C@@H]2C(=O)O; format: biochemical, Thermus thermophilus; conditions: 20 mM MES pH 5.5, 65 °C, kcat unit taken from kcat/Km in mM^-1.seg^-1
Text: as §1

[2] = substrate: CC1(C)S[C@@H]2[C@H](NC(=O)COc3ccccc3)C(=O)N2[C@H]1C(=O)O; format: biochemical, Thermus thermophilus; conditions: 20 mM MES pH 5.5, 65 °C, kcat unit taken from kcat/Km in mM^-1.seg^-1
Text: as §1

[3] = substrate: CCCCCC(=O)N[C@@H]1C(=O)N2[C@@H]1SC(C)(C)[C@@H]2C(=O)O; format: biochemical, Thermus thermophilus; conditions: 20 mM MES pH 5.5, 65 °C, kcat unit taken from kcat/Km in mM^-1.seg^-1
Text: as §1

[4] = substrate: CCCCCCCC(=O)N[C@@H]1C(=O)N2[C@@H]1SC(C)(C)[C@@H]2C(=O)O; format: biochemical, Thermus thermophilus; conditions: 20 mM MES pH 5.5, 65 °C, kcat unit taken from kcat/Km in mM^-1.seg^-1
Text: as §1

CC1(C)S[C@@H]2[C@H](NC(=O)Cc3ccccc3)C(=O)N2[C@H]1C(=O)O [Penicillin G]
K m (mM) (TthPAC): ~ Approx. 2.90 mM

B1: TthPAC (Thermus thermophilus HB27; DEL247-255) (protein)
chain: LYLRASLPQGEGRIALEGLSAPVEVVRDGKGVVRIRAATLKDLFFAQGFVHAQERLWQMEFQRRVGQGRLSEILGEATLPQDRFLRTWGFYRAARAAYGKLYPEEKEAVDAYAAGVNAFLASGAPLPPEFRLLGFRPEPWTGPDVLVWAKMMSYDLSGNWEEELKRHRLLARGVSPKRLLELKPPYPEDAPTVLRAEDLKLPLKREEAPSALLRSNNWVVAGSRTETGKPFLANDPHLALQAPSLWFLMALEAPGLRAIGATLPGLPGVVIGRNERIAWGVTNVGADVEDLYLLEEVEGRGYRYKGRVVPYGVREEVIRVKGGREEVLKVRETVYGPVITDALEDPPKTPMALRWVSLDEEDHILMAFLGVNRAGNWEEFKKALLPYSAPSQNFVYADVEGNIGYIAPGKFPVRKEGHTGMVPVPGNGEWDWLGYRRPEEWPQAFNPARGYLVTANHKVTPKGFPYALTYDWAEPYRAERIEELLLAKEKLSLEDMKAIQQDQKSLLYRDFRPVLELLTPLSEGARAWRDRLLAWDGTMAPGSEEALVFALWYTELTRLPQREVGEAYWDEPRYLLKALKEGDKNCDQPETEYRESCLDYAALALERALDRKEALGARAWGEVHRARFPHAVLTHTPLKRLSDREVAFGGDRYTVNVGPFDPETLAMGHGPSYRQIVDLSDMEGSLFVHPMGQSGHFLSRHYADLLPLWQRGDYLPMRFGAPLGRTLLLEPLPSP
notes: One gene: precursor without its first 32 residues (membrane anchor), 2223 bp insert in pET28a, His6-tag (20 aa) at N-terminus of alpha subunit kept
Km [1]: 0.94 ± 0.18 mM | kcat [1]: 0.90 ± 0.03 s⁻¹ | kcat/Km [1]: 960 M⁻¹ s⁻¹ | Km [2]: 0.74 ± 0.11 mM | kcat [2]: 0.57 ± 0.01 s⁻¹ | kcat/Km [2]: 770 M⁻¹ s⁻¹ | Km [3]: 0.98 ± 0.22 mM | kcat [3]: 1.46 ± 0.06 s⁻¹ | kcat/Km [3]: 1490 M⁻¹ s⁻¹ | Km [4]: 0.32 ± 0.05 mM | kcat [4]: 5.16 ± 0.13 s⁻¹ | kcat/Km [4]: 16100 M⁻¹ s⁻¹
